Data reported in patent publication CN109942708A (SHANGHAI KEQI PHARMACEUTICAL TECH CO LTD, dated 2019).
“And” between values parts separate entries of the source, which are not always exact repeats. Equal values may be shown once.

T1: CD138 (UniProt P18827 23-254, limits assumed)
T1 construct: Coated antigen in the specificity ELISA; also called CD138抗原
T1 sequence (looked up): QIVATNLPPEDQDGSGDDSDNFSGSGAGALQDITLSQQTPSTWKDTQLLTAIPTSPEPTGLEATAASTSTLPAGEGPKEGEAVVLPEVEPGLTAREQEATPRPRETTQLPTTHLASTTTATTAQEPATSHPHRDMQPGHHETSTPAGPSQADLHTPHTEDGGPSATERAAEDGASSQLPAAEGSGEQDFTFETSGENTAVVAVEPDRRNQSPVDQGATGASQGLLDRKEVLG

T2: CD38 (UniProt P28907 43-300)
T2 construct: Coated antigen in the specificity ELISA; also called CD38抗原
T2 sequence (looked up): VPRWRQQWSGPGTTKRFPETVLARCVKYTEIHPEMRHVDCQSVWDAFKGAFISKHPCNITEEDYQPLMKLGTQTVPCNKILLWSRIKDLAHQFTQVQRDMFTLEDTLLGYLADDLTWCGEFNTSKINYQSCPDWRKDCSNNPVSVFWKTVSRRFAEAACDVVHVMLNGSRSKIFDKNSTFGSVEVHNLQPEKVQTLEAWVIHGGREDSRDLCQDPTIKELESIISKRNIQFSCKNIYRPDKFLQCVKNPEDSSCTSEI

T3: BCMA抗原 (UniProt Q02223 1-54)
T3 construct: Recombinant BCMA antigen as immobilised on the Biacore chip and coated in the specificity ELISA; also called B细胞成熟抗原; B cell maturation antigen
T3 sequence (looked up): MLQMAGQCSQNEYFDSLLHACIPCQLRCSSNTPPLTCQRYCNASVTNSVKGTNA


Legend:
BCMA-his抗原 [1] = target: BCMA-his抗原 (UniProt Q02223); assay: phage ELISA on coated BCMA-his, helper phage control
BCMA-his抗原 [2] = target: BCMA-his抗原 (UniProt Q02223); assay: as above; remark: listed apart in the source
BCMA-FC抗原 [3] = target: BCMA-FC抗原 (UniProt Q02223); assay: phage ELISA on coated BCMA-FC, helper phage control
BCMA-his抗原 [4] = target: BCMA-his抗原 (UniProt Q02223); assay: phage ELISA on coated BCMA-his
CD138 = target: T1, CD138; assay: ELISA on antigen coated at 10ug/mL
CD38 = target: T2, CD38; assay: ELISA on antigen coated at 10ug/mL
BCMA抗原 = target: T3, BCMA抗原; assay: SPR, Biacore T2000, BCMA amine-coupled to the chip, VHH injected, 25°C
BCMA-FC抗原 [5] = target: BCMA-FC抗原 (UniProt Q02223); assay: phage ELISA on coated BCMA-FC

Row | OD450 (BCMA-his抗原 [1]) | OD450 (BCMA-his抗原 [2]) | OD450 (BCMA-FC抗原 [3]) | OD450 (BCMA-his抗原 [4]) | binding result (CD138) | binding result (CD38) | Kd (BCMA抗原) | OD450 (BCMA-FC抗原 [5]) | Molecule
1 | 0.85 OD450 and 0.631 OD450 | 2.36 OD450 and 2.38 OD450 | 0.518 OD450 and 0.332 OD450 |  |  |  |  |  | M13K07
2 |  |  |  | 2.76 OD450 | no binding | no binding | 0.32 nM |  | BCMA单域抗体B65 (VHH, FITC-labelled for flow cytometry; also called B65抗体) VHH: QLQLVESGGGLVQPGGSLRLSCAASGSISGIYAMGWYRQAPGKQRRLVAAITSGGDTFHADSVKGRFTISRDNAKNTMYLQMNSLKPEDTAVYYCNVAPWGDYDVRADFGSWGQGTQVTVSS
3 |  |  |  | 2.33 OD450 | no binding | no binding | 2.14 nM | 2.96 OD450 | BCMA单域抗体B1 (VHH, FITC-labelled for flow cytometry; also called B1抗体) VHH: QVQLVESGGGLVQPGGSLRLSCTASGSILSIYAMGWYRQAPGKQRELVAAINISSNTFYRDSVKGRFTISRDNAENTVYLQMNSLKPEDTAVYYCNVAPWGDYDVKTDFGGWGQGTQVTVSS
